Reference: PMC4369792

Experiments:
[1] = target: salivary agglutinin (SAG) glycoprotein complex (UniProt Q9UGM3); assay: single-cell force spectroscopy
[2] = target: fibronectin from human plasma (human); assay: single-molecule force spectroscopy
[3] = target: salivary agglutinin (SAG) glycoprotein complex (UniProt Q9UGM3); assay: single-molecule force spectroscopy

Sequence of UniProt Q9UGM3 (Q9UGM3 whole entry, looked up, one chain of several): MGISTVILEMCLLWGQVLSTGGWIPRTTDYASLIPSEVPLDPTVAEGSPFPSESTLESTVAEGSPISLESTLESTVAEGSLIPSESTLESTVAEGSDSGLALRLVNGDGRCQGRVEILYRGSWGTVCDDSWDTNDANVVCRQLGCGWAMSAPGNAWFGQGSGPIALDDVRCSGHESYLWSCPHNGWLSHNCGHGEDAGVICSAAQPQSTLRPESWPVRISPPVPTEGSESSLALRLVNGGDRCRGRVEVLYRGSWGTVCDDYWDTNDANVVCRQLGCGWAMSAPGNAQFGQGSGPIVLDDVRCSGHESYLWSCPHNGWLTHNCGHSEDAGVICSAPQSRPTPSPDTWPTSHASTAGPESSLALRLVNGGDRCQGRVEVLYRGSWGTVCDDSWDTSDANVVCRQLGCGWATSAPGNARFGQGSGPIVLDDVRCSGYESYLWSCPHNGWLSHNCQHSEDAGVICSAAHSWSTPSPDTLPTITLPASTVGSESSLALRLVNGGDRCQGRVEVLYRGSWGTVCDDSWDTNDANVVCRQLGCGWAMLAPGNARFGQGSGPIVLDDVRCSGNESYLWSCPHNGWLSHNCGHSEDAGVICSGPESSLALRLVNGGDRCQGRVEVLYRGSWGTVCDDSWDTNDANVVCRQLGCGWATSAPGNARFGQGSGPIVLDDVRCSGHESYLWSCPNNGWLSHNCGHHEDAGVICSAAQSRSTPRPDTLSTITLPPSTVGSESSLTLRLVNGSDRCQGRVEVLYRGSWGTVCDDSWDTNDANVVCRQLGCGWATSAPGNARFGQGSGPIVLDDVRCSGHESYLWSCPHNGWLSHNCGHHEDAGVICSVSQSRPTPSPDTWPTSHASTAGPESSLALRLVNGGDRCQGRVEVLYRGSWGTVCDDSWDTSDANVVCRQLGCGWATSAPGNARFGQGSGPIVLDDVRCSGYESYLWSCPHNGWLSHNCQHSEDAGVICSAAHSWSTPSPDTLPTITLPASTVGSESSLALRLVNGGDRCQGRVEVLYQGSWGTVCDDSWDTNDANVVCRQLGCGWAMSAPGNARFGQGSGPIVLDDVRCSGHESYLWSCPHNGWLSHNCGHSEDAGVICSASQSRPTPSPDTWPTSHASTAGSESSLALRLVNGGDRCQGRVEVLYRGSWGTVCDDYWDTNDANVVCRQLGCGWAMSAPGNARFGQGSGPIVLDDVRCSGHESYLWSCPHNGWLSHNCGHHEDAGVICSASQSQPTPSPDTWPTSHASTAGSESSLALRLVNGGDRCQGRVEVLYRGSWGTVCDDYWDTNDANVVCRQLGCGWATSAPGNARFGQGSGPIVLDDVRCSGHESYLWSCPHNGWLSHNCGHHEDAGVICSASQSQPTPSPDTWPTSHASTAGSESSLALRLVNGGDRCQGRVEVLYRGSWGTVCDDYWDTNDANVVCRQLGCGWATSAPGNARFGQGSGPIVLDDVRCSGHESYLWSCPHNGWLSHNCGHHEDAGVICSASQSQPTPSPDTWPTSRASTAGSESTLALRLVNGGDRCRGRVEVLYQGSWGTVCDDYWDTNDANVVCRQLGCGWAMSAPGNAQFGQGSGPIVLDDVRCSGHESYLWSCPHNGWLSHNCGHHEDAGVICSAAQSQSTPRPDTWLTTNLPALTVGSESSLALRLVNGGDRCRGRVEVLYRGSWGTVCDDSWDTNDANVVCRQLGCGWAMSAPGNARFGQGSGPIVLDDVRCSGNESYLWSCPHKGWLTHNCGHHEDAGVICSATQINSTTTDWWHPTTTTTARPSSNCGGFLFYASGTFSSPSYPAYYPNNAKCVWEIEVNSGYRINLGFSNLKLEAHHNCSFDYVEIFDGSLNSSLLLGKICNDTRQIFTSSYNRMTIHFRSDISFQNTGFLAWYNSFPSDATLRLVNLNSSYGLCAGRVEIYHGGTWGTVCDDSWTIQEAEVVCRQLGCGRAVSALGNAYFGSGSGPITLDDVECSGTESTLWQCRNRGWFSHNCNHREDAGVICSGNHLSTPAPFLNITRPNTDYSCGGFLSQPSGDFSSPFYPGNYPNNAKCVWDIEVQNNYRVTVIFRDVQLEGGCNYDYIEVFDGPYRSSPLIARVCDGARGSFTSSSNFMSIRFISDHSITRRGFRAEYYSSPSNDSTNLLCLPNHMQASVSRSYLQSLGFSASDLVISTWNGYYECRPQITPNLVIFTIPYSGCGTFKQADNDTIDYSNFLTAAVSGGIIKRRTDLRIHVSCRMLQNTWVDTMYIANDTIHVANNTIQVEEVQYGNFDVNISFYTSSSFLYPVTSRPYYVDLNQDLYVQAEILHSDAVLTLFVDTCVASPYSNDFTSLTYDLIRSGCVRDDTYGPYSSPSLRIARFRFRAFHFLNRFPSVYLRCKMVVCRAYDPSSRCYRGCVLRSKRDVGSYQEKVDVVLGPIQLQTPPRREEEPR

cell surface-localized P1 on living Streptococcus mutans NG8 cells (from UniProt P23504 39-1532) (natural protein)
adhesion force [1]: 100 to 1500 pN

full-length P1 adhesin of Streptococcus mutans (from UniProt P23504 39-1532) (natural protein)
mean adhesion force [2]: 46 pN
most probable adhesion force [3]: 57 pN

P1 globular head fragment (A3VP1) (domain or fragment)
binding frequency [2]: 49%
